Measurements taken from the RNAGym collection of RNA variant scans (doi:10.1093/molbev/msab373).

B1: Azoarcus group I ribozyme (parent)
chain: GUGCCUUGCGCCGGGAAACCACGCAAGGGAUGGUGUCAAAUUCGGCGAAACCUAAGCGCCCGCCCGGGCGUAUGGCAACGCCGAGCCAAGCUUCGGCGCCUGCGCCGAUGAAGGUGUAGAGACUAGACGGCACCCACCUAAGGCAAACGCUAUGGUGAAGGCAUAGUCCAGGGAGUGGCGAAAGUCACACAAACCGG

Variants of: B1
Assay: reverse-splicing fitness (ratio to wild type); higher = more active; in vitro selection; Mg2+ level not given
How it was run: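 An in vitro group I ribozyme library with randomized positions was T7-transcribed and gel-purified. In triplicate, 10 pmol RNA in EPPS pH 7.5 was reacted with 50 pmoles of a 30-nt RNA substrate for 1 h at 37 °C across several added MgCl2 levels (1–48 mM), then stopped with EDTA. Products were reverse transcribed from a substrate-complementary primer, PCR-amplified and sequenced (HiSeq 4000). Fitness is a variant's read proportion after selection over that before, normalised to wild type.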

Going from C82U A111G A120G C150A C169A U176G to C82U A111G A120G C150A C169A U176A, the reverse-splicing fitness rises from 0.00577 to 0.0173.

Going from C82U A111G A120G C150A C169A U176C to C82U A111G A120G C150A C169G, the reverse-splicing fitness falls from 0.0192 to 0.00939.

First: C82U A111G A120G C150A C169A
Second: C82U A111G A120G C150A C169U
The reverse-splicing fitness of the first is higher: 0.00997 for the first, 0.00735 for the second.

Going from C82U A111G A120G A145C C150U to C82U A111G A120G A145C C150A, the reverse-splicing fitness falls from 0.00813 to 0.00658.

Compared with C82U A111G A120G A145C C150G, C82U A111G A120G C150G C169G U176C is lower in reverse-splicing fitness: 0.00632 for the first, 0.00458 for the second.

Going from C82U A111G A120G C150G C169G U176A to C82U A111G A120G C150G C169G U176G, the reverse-splicing fitness falls from 0.00604 to 0.00428.

First: C82U A111G A120G A145U C150G U176A
Second: C82U A111G A120G A145U C150G U176G
The reverse-splicing fitness of the first is higher: 0.00535 for the first, 0.00321 for the second.

First: C82U A111G A120G A145U C150G U176C
Second: C82U A111G A120G A145C C150A U176A
The reverse-splicing fitness of the first is lower: 0.00779 for the first, 0.00929 for the second.

First: C82U A111G A120G A145C C150A U176C
Second: C82U A111G A120G A145C C150A U176G
The reverse-splicing fitness of the first is higher: 0.00818 for the first, 0.00354 for the second.

Going from C82U A111G A120G A145G C150A C169A U176G to C82U A111G A120G A145G C150A C169A U176A, the reverse-splicing fitness rises from 0.00545 to 0.0174.

C82U A111G A120G A145G C150A C169A U176C and C82U A111G A120G A145C C150U C169U U176A are the same in reverse-splicing fitness: 0.0196 for the first, 0.0196 for the second.

Going from C82U A111G A120G A145C C150U C169U U176G to C82U A111G A120G A145C C150U C169U U176C, the reverse-splicing fitness rises from 0.00413 to 0.0091.

Going from C82U A111G A120G C150A U176A to C82U A111G A120G C150A U176C, the reverse-splicing fitness rises from 0.00996 to 0.016.

Compared with C82U A111G A120G C150A U176G, C82U A111G A120G A145C C150A C169U U176C is higher in reverse-splicing fitness: 0.00658 for the first, 0.00907 for the second.

Compared with C82U A111G A120G A145C C150A C169U U176G, C82U A111G A120G A145C C150A C169U U176A is higher in reverse-splicing fitness: 0.00373 for the first, 0.0192 for the second.

First: C82U A111G A120C A145U C150G C169U U176C
Second: C82U A111G A120C A145U C150G C169U U176G
The reverse-splicing fitness of the first is higher: 0.0124 for the first, 0.00471 for the second.

First: C82U A111G A120C A145U C150G C169U U176A
Second: C82U A111G A120C C150A C169G U176C
The reverse-splicing fitness of the first is lower: 0.00625 for the first, 0.0191 for the second.

First: C82U A111G A120C C150A C169G U176G
Second: C82U A111G A120C C150A C169G U176A
The reverse-splicing fitness of the first is lower: 0.00458 for the first, 0.0237 for the second.

Going from C82U A111G A120G A145G C150G C169U U176A to C82U A111G A120G A145G C150G C169U U176C, the reverse-splicing fitness falls from 0.0114 to 0.0105.

Compared with C82U A111G A120G A145G C150G C169U U176G, C82U A111G A120C C150U C169U U176A is higher in reverse-splicing fitness: 0.00643 for the first, 0.0154 for the second.

First: C82U A111G A120C C150U C169U U176G
Second: C82U A111G A120C C150U C169U U176C
The reverse-splicing fitness of the first is lower: 0.0054 for the first, 0.0151 for the second.

Going from C82U A111G A120G A145U C150G C169U U176C to C82U A111G A120G A145U C150G C169U U176G, the reverse-splicing fitness falls from 0.0117 to 0.0048.

First: C82U A111G A120G A145U C150G C169U U176A
Second: C82U A111G A120G A145C C169G U176C
The reverse-splicing fitness of the first is lower: 0.0129 for the first, 0.0158 for the second.

Compared with C82U A111G A120G A145C C169G U176G, C82U A111G A120G A145C C169G U176A is higher in reverse-splicing fitness: 0.0039 for the first, 0.0238 for the second.

Compared with C82U A111G A120C C150G, C82U A111G A120C C150A is higher in reverse-splicing fitness: 0.00825 for the first, 0.0113 for the second.

First: C82U A111G A120C C150U
Second: C82U A111G A120G A145G C150A C169U
The reverse-splicing fitness of the first is higher: 0.0325 for the first, 0.00914 for the second.

Going from C82U A111G A120G A145G C150A C169G to C82U A111G A120G A145G C150A C169A, the reverse-splicing fitness rises from 0.009 to 0.00945.

Going from C82U A111G A120C C169G U176A to C82U A111G A120C C169G U176G, the reverse-splicing fitness falls from 0.0168 to 0.00426.

Going from C82U A111G A120C C169G U176C to C82U A111G A120C C150G C169U U176C, the reverse-splicing fitness falls from 0.0156 to 0.0138.

First: C82U A111G A120C C150G C169U U176A
Second: C82U A111G A120C C150G C169U U176G
The reverse-splicing fitness of the first is higher: 0.00617 for the first, 0.00489 for the second.

Going from C82U A111G A120C C150G C169G to C82U A111G A120C C150G C169U, the reverse-splicing fitness rises from 0.00713 to 0.00828.

Going from C82U A111G A120C C150G C169A to C82U A111G A120C C150G U176A, the reverse-splicing fitness falls from 0.0083 to 0.00392.

Going from C82U A111G A120C C150G U176G to C82U A111G A120C C150G U176C, the reverse-splicing fitness rises from 0.00249 to 0.00984.

Going from C82U A111G A120C A145U C169A U176G to C82U A111G A120C A145U C169A U176A, the reverse-splicing fitness rises from 0.00329 to 0.00844.

Compared with C82U A111G A120C A145U C169A U176C, C82U A111G A120C C150G C169A U176G is lower in reverse-splicing fitness: 0.00627 for the first, 0.00578 for the second.

First: C82U A111G A120C C150G C169A U176C
Second: C82U A111G A120C C150G C169A U176A
The reverse-splicing fitness of the first is higher: 0.0113 for the first, 0.00865 for the second.

First: C82U A111G A120G C150G
Second: C82U A111G A120G C150A
The reverse-splicing fitness of the first is lower: 0.00676 for the first, 0.00982 for the second.

First: C82U A111G A120G C150U
Second: C82U A111G A120G C150U C169G
The reverse-splicing fitness of the first is higher: 0.0125 for the first, 0.0104 for the second.

First: C82U A111G A120G C150U C169A
Second: C82U A111G A120G A145U C150G C169G U176C
The reverse-splicing fitness of the first is higher: 0.0105 for the first, 0.00487 for the second.

Compared with C82U A111G A120G A145U C150G C169G U176G, C82U A111G A120G A145U C150G C169G U176A is higher in reverse-splicing fitness: 0.00427 for the first, 0.00667 for the second.

Compared with C82U A111G A120G A145G C150G C169U, C82U A111G A120G A145G C150G C169A is higher in reverse-splicing fitness: 0.00855 for the first, 0.00895 for the second.

C82U A111G A120G A145G C150G C169G gave a reverse-splicing fitness of 0.00721.
